Data from patent US20170253633A1 (IMMATICS BIOTECHNOLOGIES, published 2017).
Non-standard residues stand in square brackets, D forms with d. No end group written: not given here. pT = C[C@@H](OP(=O)(O)O)[C@H](N)C(=O)O

How the values were obtained:
[1] = molecular target: T1, HLA-A*02:01 (human); assay: UV-ligand exchange + anti-b2m ELISA; ++ = peptide exchange yield >20%
T1 construct: MHC monomer first loaded with a UV-sensitive peptide, which is cleaved by UV and exchanged with the test peptide; captured on streptavidin plates; also called peptide-receptive MHC molecules
Excerpt: (§1) Candidate peptides for T cell based therapies according to the present invention were further tested for their MHC binding capacity (affinity). The individual peptide-MHC complexes were produced by UV-ligand exchange, where a UV-sensitive peptide is cleaved upon UV-irradiation, and exchanged with the peptide of interest as analyzed. Only peptide candidates that can effectively bind and stabilize the peptide-receptive MHC molecules prevent dissociation of the MHC complexes. To determine the yield of the exchange reaction, an ELISA was performed based on the detection of the light chain (β2m) of stabilized MHC complexes. The assay was performed as generally described in Rodenko et al. (Rodenko et al., 2006).
(§2) 96 well MAXISorp plates (NUNC) were coated over night with 2 ug/ml streptavidin in PBS at room temperature, washed 4× and blocked forth at 37° C. in 2% BSA containing blocking buffer. Refolded HLA-A*02:01/MLA-001 monomers served as standards, covering the range of 15-500 ng/ml. Peptide-MHC monomers of the UV-exchange reaction were diluted 100 fold in blocking buffer. Samples were incubated for 1 h at 37° C., washed four times, incubated with 2 ug/ml HRP conjugated anti-β2m for 1 h at 37° C., washed again and detected with TMB solution that is stopped with […]. Absorption was measured at 450 nm. Candidate peptides that show a high exchange yield (preferably higher than 50%, most preferred higher than 75%) are generally preferred for a generation and production of antibodies or fragments thereof, and/or T cell receptors or fragments thereof, as they show sufficient avidity to the MHC molecules and prevent dissociation of the MHC complexes.

[2] = molecular target: T1, HLA-A*02:01; assay: UV-ligand exchange + anti-b2m ELISA; ++++ = peptide exchange yield >75%
Excerpt: as §1, §2

L[pT]LAKLEKV (gene: C9orf156) [LULAKLEKV] was tested, and the peptide exchange yield [1] was 20 to 50%.

IIDSSPTAL (gene: ATAD5) showed a peptide exchange yield [1] of 20 to 50%.

Work on KLAEISLGV (gene: DSG3) yielded a peptide exchange yield [1] of 20 to 50%.

LLSEDFVSV (gene: SPATA20) gave a peptide exchange yield [1] of 20 to 50%.

RLLELLQEA (gene: PROM2) showed a peptide exchange yield [2] greater than 75%.

SLVDARFQL (gene: OSR1) gave a peptide exchange yield [2] greater than 75%.

For YLIGQHVTA (gene: FBXO21), the peptide exchange yield [2] was greater than 75%.

In the case of GLYSGEVLV (gene: WDR34), the peptide exchange yield [2] is reported as greater than 75%.
